How the values were obtained:
[1] = system: Sleeping Beauty transposase N123 HSB1 (mutations not given) (salmonid (reconstructed)); experiment: EMSA; settings: no change vs WT
[2] = system: Sleeping Beauty transposase S270A S270A (salmonid (reconstructed)); experiment: cell_activity; settings: transposition in HeLa
[3] = system: Sleeping Beauty transposase HSB-5 K13A,K33A,T83A,S270A (salmonid (reconstructed)); experiment: cell_activity; settings: transposition in HeLa, G418R colonies
[4] = system: Sleeping Beauty transposase K33A K33A (salmonid (reconstructed)); experiment: cell_activity; settings: transposition in HeLa; text says improved 400%
[5] = biological target: T1, Sleeping Beauty transposase N123 L25A (salmonid (reconstructed), L25A); experiment: EMSA; settings: tags: pGADT7 TNT T7 reticulocyte lysate; label: 32P
T1 chain: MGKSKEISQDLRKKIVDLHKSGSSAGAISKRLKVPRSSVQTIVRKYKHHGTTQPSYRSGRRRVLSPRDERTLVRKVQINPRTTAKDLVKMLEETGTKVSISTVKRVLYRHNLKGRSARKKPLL
Experimental: (§1) Truncated (N123) derivatives of wild-type and mutant SB proteins were generated using the TNT T7 coupled reticulocyte lysate system (Promega) according to the manufacturer's instructions. Double-stranded oligonucleotides corresponding to the outer and inner direct repeats (DRs) from SB's left inverted repeat (IR) were end-labeled using [γ-^32P]ATP and PNK. Complexes were formed in a 10 μl volume containing 10 fmol labeled oligonucleotide, 6 μl of in vitro translation product, 1 μg poly(dI)(dC), and binding buffer as previously described (Ivics et al., 1997). For competitions, increasing amounts (1-500 nM) of the corresponding unlabeled oligonucleotide was added to the reaction. After a 90 minute incubation at 22° C., 5 μl of loading dye was added and each sample was resolved on a 5% polyacrylamide gel for 2-3 hours at 120 volts. Binding affinities were determined by measuring the ratio of bound vs. free radiolabeled probe using a Phosphorimager, and normalized according to the amount bound in the absence of cold competitor minus the amount bound at the highest competitor concentration.

[6] = biological target: T2, Sleeping Beauty transposase N123 R36A (salmonid (reconstructed), R36A); experiment: EMSA; settings: tags: pGADT7 TNT T7 reticulocyte lysate; label: 32P
T2 chain: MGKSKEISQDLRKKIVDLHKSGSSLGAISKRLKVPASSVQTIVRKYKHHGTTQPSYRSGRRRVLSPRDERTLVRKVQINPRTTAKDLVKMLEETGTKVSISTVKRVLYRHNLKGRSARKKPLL
Experimental: as §1

[7] = biological target: T3, Sleeping Beauty transposase N123 I42A (salmonid (reconstructed), I42A); experiment: EMSA; settings: tags: pGADT7 TNT T7 reticulocyte lysate; label: 32P
T3 chain: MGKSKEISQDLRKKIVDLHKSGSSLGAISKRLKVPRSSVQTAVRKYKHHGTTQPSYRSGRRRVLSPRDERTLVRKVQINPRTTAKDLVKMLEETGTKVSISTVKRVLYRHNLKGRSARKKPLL
Experimental: as §1

[8] = biological target: T4, Sleeping Beauty transposase N123 (WT) (salmonid (reconstructed)); experiment: EMSA; poly(dI)(dC), 22 C; 500-fold cold oligo used as specific competitor; settings: tags: pGADT7 TNT T7 reticulocyte lysate; label: 32P
T4 chain: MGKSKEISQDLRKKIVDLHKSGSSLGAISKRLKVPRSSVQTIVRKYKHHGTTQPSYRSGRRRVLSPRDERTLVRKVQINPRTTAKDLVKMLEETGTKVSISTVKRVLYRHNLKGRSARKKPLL
Experimental: as §1

[9] = biological target: T5, Sleeping Beauty transposase N123 HSB2 (salmonid (reconstructed), K33A,L91A); experiment: EMSA; no change vs WT; settings: tags: pGADT7 TNT T7 reticulocyte lysate; label: 32P
T5 chain: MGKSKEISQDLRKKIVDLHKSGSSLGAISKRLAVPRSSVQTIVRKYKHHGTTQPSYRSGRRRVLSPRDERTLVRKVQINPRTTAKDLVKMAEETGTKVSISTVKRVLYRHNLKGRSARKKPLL
Experimental: as §1
(§2) Figure 8: FIG. 8. is a comparison of the relative binding affinities of the WT and HSB mutants for transposon binding sites. SB-N123 peptides for WT and hyperactive transposases were complexed with double-stranded radiolabeled oligos encoding the inner (top panel) or outer (bottom panel) DR sequences. Protein-DNA complexes were formed in the presence of increasing amounts of the corresponding unlabeled oligonucleotide. The percent binding was determined using a Phosphorimager and normalized according to the amount of probe bound in the absence of any competitor minus the amount of probe bound at 500 nM.

[10] = biological target: T6, Sleeping Beauty transposase N123 HSB4 (salmonid (reconstructed), K33A,T83A,L91A); experiment: EMSA; no change vs WT; settings: tags: pGADT7 TNT T7 reticulocyte lysate; label: 32P
T6 chain: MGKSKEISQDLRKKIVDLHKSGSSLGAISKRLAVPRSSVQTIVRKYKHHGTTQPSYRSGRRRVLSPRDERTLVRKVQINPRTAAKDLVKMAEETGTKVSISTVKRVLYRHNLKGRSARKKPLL
Experimental: as §1, §2

[11] = biological target: T7, Sleeping Beauty transposase N123 HSB3 (salmonid (reconstructed), K13A,K33A,T83A); experiment: EMSA; no change vs WT; settings: tags: pGADT7 TNT T7 reticulocyte lysate; label: 32P
T7 chain: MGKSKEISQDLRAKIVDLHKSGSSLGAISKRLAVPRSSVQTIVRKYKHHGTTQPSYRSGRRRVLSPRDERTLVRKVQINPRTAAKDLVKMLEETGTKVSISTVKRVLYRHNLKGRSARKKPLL
Experimental: as §1, §2

[12] = biological target: T5, Sleeping Beauty transposase N123 HSB2; experiment: EMSA; cold competition, 1-500 nM; settings: tags: pGADT7 TNT T7 reticulocyte lysate; label: 32P
Experimental: as §1, §2

[13] = biological target: T6, Sleeping Beauty transposase N123 HSB4; experiment: EMSA; cold competition, 1-500 nM; settings: tags: pGADT7 TNT T7 reticulocyte lysate; label: 32P
Experimental: as §1, §2

[14] = biological target: T7, Sleeping Beauty transposase N123 HSB3; experiment: EMSA; cold competition, 1-500 nM; settings: tags: pGADT7 TNT T7 reticulocyte lysate; label: 32P
Experimental: as §1, §2

Molecule: TCCAGTGGGTCAGAAGTTTACATACACTAAGT (double strand) [inner DR of SB left IR]
- binding signal (fold affinity vs WT) [1]: 1

Molecule: pT/nori neomycin-marked SB transposon (full sequence not given)
- activity [2]: 186 % of WT
- activity [3]: > 10 fold vs WT
- activity [4]: 400 % of WT

B1: inner DR of SB left IR (dsDNA)
DNA 1: TCCAGTGGGTCAGAAGTTTACATACACTAAGT
DNA 2: ACTTAGTGTATGTAAACTTCTGACCCACTGGA
- binding result [5]: binds
- binding result [6]: binds
- binding result [7]: binds
- binding result [8]: binds
- binding signal [9]: 1 fold affinity vs WT
- binding signal [10]: 1 fold affinity vs WT
- binding signal [11]: 1 fold affinity vs WT

B2: outer DR of SB left IR (dsDNA)
DNA 1: TACAGTTGAAGTCGGAAGTTTACATACACTTAGG
DNA 2: CCTAAGTGTATGTAAACTTCCGACTTCAACTGTA
- binding result [12]: binds
- binding result [13]: binds
- binding signal [14]: 2 fold affinity vs WT
- binding result [8]: binds
